Values of other authors as cited in PMC3538140.

Target: TRAIL-R1 (Homo sapiens) (UniProt O00220)
UniProt O00220, sequence (O00220 24-468): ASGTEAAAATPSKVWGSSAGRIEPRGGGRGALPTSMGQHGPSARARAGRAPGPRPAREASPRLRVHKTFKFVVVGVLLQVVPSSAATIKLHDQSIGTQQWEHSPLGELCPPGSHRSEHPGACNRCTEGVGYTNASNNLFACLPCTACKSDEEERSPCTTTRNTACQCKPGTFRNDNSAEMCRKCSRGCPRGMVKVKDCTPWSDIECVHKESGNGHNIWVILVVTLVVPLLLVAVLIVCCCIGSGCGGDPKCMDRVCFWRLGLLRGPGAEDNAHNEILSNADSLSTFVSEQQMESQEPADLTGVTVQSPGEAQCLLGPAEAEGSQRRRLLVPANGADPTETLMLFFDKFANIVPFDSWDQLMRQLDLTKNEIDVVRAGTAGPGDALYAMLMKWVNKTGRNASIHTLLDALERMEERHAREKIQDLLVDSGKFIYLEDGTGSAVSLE

Kd: 70 nM
Substance: TRAIL (from UniProt P50591)
